Experimental data reported in patent US20230312725A1 (JIANGSU HENGRUI PHARMACEUTICALS, published 2023).
Blank lines part the entries; values can stand above or below the binder they belong to.

Biological target: human Claudin18.2 (human)
Assay: cell-based or functional assay

- ADCC effect, IC50 (ng/ml), NUGC4 cells with high Claudin18.2 expression: 133 ng/mL
- ADCC effect, IC50 (ng/ml), NUGC4 cells with low Claudin18.2 expression: 183 ng/mL
- ADCC effect, IC50 (ng/ml), NUGC4 cells with moderate Claudin18.2 expression: 210 ng/mL
B1: IMAB-362 (antibody, human IgG1, kappa, V domains shown)
VH: QVQLQQPGAELVRPGASVKLSCKASGYTFTSYWINWVKQRPGQGLEWIGNIYPSDSYTNYNQKFKDKATLTVDKSSSTAYMQLSSPTSEDSAVYYCTRSWRGNSFDYWGQGTTLTVSS
VL: DIVMTQSPSSLTVTAGEKVTMSCKSSQSLLNSGNQKNYLTWYQQKPGQPPKLLIYWASTRESGVPDRFTGSGSGTDFTLTISSVQAEDLAVYYCQNDYSYPFTFGSGTKLEIKR

- ADCC effect, IC50 (ng/ml), NUGC4 cells with high Claudin18.2 expression: 26.2 ng/mL
- ADCC effect, IC50 (ng/ml), NUGC4 cells with low Claudin18.2 expression: 22.4 ng/mL
- ADCC effect, IC50 (ng/ml), NUGC4 cells with moderate Claudin18.2 expression: 15.3 ng/mL
B2: h1901-11 (antibody, human IgG1, kappa, V domains shown)
VH: EVQLVESGGGLVQPGGSLRLSCAASGFTFSDYGIHWVRQAPGKGLEWIAYISRGSSTIYYADTVKGRFTISRDNAKNSLYLQMTSLRAEDTAVYYCARGGYDTRNAMDYWGQGTTVTVSS
VL: DIVMTQSPDSLAVSLGERATISCKSSQSLLNSGNQKNYLAWYQQKPGQPPKLLIYGASTRASGVPDRFSGSGSGTDFTLTISSLQAEDVAIYHCQNDLYYPLTFGQGTKLEIKR
